Assay results from US20200317768A1 (published 2020).

Columns and labels:
Assay in all cases: SPR, antibody captured, FcgR analyte
[1] = target: T1, cynomolgus monkey FcγRIIa3 extracellular domain, His-tagged (cynomolgus monkey)
T1 construct: also called cyno FcγRIIa3; cynoFcgRIIa3
T1 chain: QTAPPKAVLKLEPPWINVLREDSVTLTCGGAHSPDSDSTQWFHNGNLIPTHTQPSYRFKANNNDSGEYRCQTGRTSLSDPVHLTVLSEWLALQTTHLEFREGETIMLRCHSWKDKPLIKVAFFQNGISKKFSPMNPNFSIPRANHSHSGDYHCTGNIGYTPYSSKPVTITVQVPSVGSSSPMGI
Description: (§1) The kinetic analysis of interactions between these antibodies and FcγR was carried out using BIACORE® T200 or BIACORE® 4000 (GE Healthcare). HBS-EP+ (GE Healthcare) was used as the running buffer, and the measurement temperature was set to 25° C. A chip produced by immobilizing Protein A. Protein A/G or mouse anti-human IgG kappa light chain (BD Biosciences) onto a Series S Sensor Chip CM4 or CM5 (GE Healthcare) by the amine-coupling method was used. […] After the measurement, the antibody captured on the chip was washed off by allowing reaction with 10 mM glycine-HCl, pH1.5 and 25 mM NaOH so that the chip was regenerated and used repeatedly. The sensorgrams obtained as measurement results were analyzed by the 1:1 Langmuir binding model using the BIACORE® Evaluation Software to calculate the binding rate constant ka (L/mol/s) and dissociation rate constant kd (l/s), and the dissociation constant KD (mol/L) was calculated from these values. […] Regarding such interactions, KD values were calculated using the following 1:1 binding model described in BIACORE® T100 Software Handbook BR1006-48 Edition AE.
(§2) The behavior of interacting molecules according to the 1:1 binding model on BIACORE® can be described by Equation 1: Req=C·R max/(KD+C)+RI, wherein, Req is a plot of steady-state binding levels to analyte concentration. C is concentration, RI is bulk refractive index contribution in the sample, and Rmax is analyte binding capacity of the surface. When this equation is rearranged, KD can be expressed as Equation 2: KD=C·Rmax/(Req−RI)−C. KD can be calculated by substituting the values of Rmax, RI, and C into Equation 1 or Equation 2. From the current measurement conditions, RI=0, C=2 μmol/L can be used.

[2] = target: T2, cynomolgus monkey FcγRIIa2 extracellular domain, His-tagged (cynomolgus monkey)
T2 construct: also called cyno FcγRIIa2; cynoFcgRIIa2
T2 chain: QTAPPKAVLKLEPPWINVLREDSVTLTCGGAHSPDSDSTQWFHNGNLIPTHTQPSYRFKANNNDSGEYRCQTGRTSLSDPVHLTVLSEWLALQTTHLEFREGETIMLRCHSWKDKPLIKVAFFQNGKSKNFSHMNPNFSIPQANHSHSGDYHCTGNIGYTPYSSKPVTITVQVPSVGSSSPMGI
Description: as §1, §2

[3] = target: T3, human FcγRIIb extracellular domain, His-tagged (human, UniProt P31994 43-217)
T3 construct: also called FcgRIIb (human)
T3 sequence: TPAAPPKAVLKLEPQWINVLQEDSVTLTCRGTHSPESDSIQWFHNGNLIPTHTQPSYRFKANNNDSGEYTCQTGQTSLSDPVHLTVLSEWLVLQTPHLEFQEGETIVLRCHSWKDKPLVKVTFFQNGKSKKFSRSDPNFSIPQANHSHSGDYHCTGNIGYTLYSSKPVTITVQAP
Description: as §1, §2

[4] = target: T4, cynomolgus monkey FcγRIIIaS extracellular domain, His-tagged (cynomolgus monkey, UniProt Q8SPW2 21-206 at identity 1.00))
T4 construct: also called cyno FcγRIIIaS; cynoFcγRIIIaS
T4 chain: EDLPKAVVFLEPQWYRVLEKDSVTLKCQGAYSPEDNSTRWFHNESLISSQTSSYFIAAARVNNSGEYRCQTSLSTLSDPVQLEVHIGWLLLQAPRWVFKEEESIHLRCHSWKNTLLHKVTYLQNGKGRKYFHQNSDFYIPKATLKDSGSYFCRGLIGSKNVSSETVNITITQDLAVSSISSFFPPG
Description: as §1, §2

[5] = target: T5, human FcγRIIIaV extracellular domain, His-tagged (human, UniProt P08637 17-208)
T5 construct: also called FcgRIIIaV
T5 sequence (P08637 17-208 F176V): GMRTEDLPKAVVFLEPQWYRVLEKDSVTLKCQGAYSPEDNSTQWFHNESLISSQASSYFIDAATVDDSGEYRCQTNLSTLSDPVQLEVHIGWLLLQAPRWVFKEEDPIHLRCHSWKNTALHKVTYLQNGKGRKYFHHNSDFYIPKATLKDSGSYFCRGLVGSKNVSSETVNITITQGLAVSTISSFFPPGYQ
Description: as §1, §2

[6] = target: T6, human FcγRIIaH extracellular domain, His-tagged (human, UniProt P12318 34-217)
T6 construct: also called human FcγRIIa (type H); FcgRIIaH
T6 sequence: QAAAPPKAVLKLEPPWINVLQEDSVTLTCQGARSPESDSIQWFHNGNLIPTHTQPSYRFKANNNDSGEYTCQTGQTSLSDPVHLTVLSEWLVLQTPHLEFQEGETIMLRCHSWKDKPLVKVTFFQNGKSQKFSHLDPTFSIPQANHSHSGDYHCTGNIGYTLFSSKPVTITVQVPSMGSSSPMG
Description: as §1, §2

[7] = target: T7, cynomolgus monkey FcγRIIa1 extracellular domain, His-tagged (cynomolgus monkey)
T7 construct: also called cyno FcγRIIa1; cynoFcgRIIa1
T7 chain: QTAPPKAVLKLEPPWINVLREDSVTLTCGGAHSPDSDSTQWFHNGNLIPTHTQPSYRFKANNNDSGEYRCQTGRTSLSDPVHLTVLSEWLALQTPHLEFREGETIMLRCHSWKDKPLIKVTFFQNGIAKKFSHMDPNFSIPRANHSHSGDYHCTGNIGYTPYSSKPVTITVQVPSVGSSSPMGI
Description: as §1, §2

[8] = target: T8, human FcγRIIaR extracellular domain, His-tagged (human, UniProt P12318 34-217)
T8 construct: also called human FcγRIIa (type R); FcgRIIaR
T8 chain: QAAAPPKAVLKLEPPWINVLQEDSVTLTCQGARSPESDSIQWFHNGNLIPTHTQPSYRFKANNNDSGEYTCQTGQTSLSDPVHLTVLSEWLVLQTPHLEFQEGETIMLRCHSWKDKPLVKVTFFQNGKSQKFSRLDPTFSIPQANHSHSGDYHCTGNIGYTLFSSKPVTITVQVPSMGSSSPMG
Description: as §1, §2

- Kd [1]: 4700 nM
- Kd [2]: 1500 nM
- Kd [3]: 1600 nM
- Kd [4]: 100 nM
- Kd [5]: 240 nM
- Kd [6]: 330 nM
- Kd [7]: 1300 nM
- Kd [8]: 320 nM
B1: M103205H795-MY015/M103202L889-SK1 (antibody, human IgG1, kappa)
heavy: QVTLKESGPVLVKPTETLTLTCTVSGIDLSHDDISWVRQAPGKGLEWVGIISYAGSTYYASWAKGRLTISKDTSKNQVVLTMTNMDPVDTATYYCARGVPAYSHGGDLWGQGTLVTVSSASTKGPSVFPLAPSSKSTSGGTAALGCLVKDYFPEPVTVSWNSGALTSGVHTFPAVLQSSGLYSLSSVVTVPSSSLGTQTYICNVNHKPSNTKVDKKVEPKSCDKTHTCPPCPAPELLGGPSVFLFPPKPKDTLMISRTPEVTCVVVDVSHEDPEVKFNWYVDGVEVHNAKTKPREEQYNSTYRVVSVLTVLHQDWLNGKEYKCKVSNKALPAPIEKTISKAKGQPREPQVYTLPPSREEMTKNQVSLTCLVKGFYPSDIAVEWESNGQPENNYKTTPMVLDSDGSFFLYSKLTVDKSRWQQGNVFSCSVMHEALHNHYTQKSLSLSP
light: DIVMTQSPATLSLSPGERATLSCTSSQSVYHANWLSWFQQKPGQPPKLLIYWASTLAYGVPSRFSGSGSGTDFTLTISSLQPEDAATYYCAGGYGGGRYAFGQGTKVEIKRTVAAPSVFIFPPSDEQLKSGTASVVCLLNNFYPREAKVQWKVDNALQSGNSQESVTEQDSKDSTYSLSSTLTLSKADYEKHKVYACEVTHQGLSSPVTKSFNRGEC
notes: Substitution put into M103205H795-SG1
